# In the supplement of paper PMC10567573:
# B1: PTPRD (parent)
# chain: LTKLREMGREKCHQYWPAERSARY
# Variants of: B1
# Assay: protein stability index of a GFP-peptide fusion (GPS, HEK-293T) (PSI 1-6); higher = more stable
# Settings: c terminus: a fixed tail appended
# 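Also: lentivirally expressed fusions sorted by FACS into six bins by GFP to DsRed ratio, PSI derived from sequencing read proportions per bin multiplied by bin number.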
row,Variant,protein stability index
1,LTKLRGMGREKCHQYWPAERSARY,2.23
2,LTKLRKMGREKCHQYWPAERSARY,1.95
3,LTKLRSMGREKCHQYWPAERSARY,1.98
4,LTKLRFMGREKCHQYWPAERSARY,2.45
5,LTKLRWMGREKCHQYWPAERSARY,1.82
6,LTKLRTMGREKCHQYWPAERSARY,2.52
7,LTKLRQMGREKCHQYWPAERSARY,2.1
8,LTKLRYMGREKCHQYWPAERSARY,1.7
9,LTKLRAMGREKCHQYWPAERSARY,2.41
10,LTKLRRMGREKCHQYWPAERSARY,2.38
11,LTKLRLMGREKCHQYWPAERSARY,2.13
12,LTKLRIMGREKCHQYWPAERSARY,1.9
13,LTKLRMMGREKCHQYWPAERSARY,2.18
14,LTKLRCMGREKCHQYWPAERSARY,1.75
15,LTKLRVMGREKCHQYWPAERSARY,1.73
16,LTKLRETGREKCHQYWPAERSARY,2.71
17,LTKLREKGREKCHQYWPAERSARY,2.98
18,LTKLREIGREKCHQYWPAERSARY,2.54
19,LTKLREYGREKCHQYWPAERSARY,2.7
20,LTKLREHGREKCHQYWPAERSARY,2.75
21,LTKLREVGREKCHQYWPAERSARY,2.56
22,LTKLREQGREKCHQYWPAERSARY,2.56
23,LTKLREEGREKCHQYWPAERSARY,3.25
24,LTKLRENGREKCHQYWPAERSARY,2.77

row,Variant,protein stability index
1,LTKLREGGREKCHQYWPAERSARY,2.64
2,LTKLREWGREKCHQYWPAERSARY,1.67
3,LTKLRERGREKCHQYWPAERSARY,2.35
4,LTKLRECGREKCHQYWPAERSARY,2.23
5,LTKLRELGREKCHQYWPAERSARY,1.9
6,LTKLREPGREKCHQYWPAERSARY,2.67
7,LTKLREDGREKCHQYWPAERSARY,3.14
8,LTKLREFGREKCHQYWPAERSARY,2.41
9,LTKLREAGREKCHQYWPAERSARY,2.57
10,LTKLRESGREKCHQYWPAERSARY,2.55
11,LTKLREMGMEKCHQYWPAERSARY,2.8
12,LTKLREMGNEKCHQYWPAERSARY,2.68
13,LTKLREMGIEKCHQYWPAERSARY,2.29
14,LTKLREMGWEKCHQYWPAERSARY,2.04
15,LTKLREMGFEKCHQYWPAERSARY,2.38
16,LTKLREMGCEKCHQYWPAERSARY,2.15
17,LTKLREMGAEKCHQYWPAERSARY,2.64
18,LTKLREMGDEKCHQYWPAERSARY,3.48
19,LTKLREMGPEKCHQYWPAERSARY,2.53
20,LTKLREMGYEKCHQYWPAERSARY,2.16
21,LTKLREMGTEKCHQYWPAERSARY,2.65
22,LTKLREMGGEKCHQYWPAERSARY,2.79
23,LTKLREMGKEKCHQYWPAERSARY,2.84
24,LTKLREMGEEKCHQYWPAERSARY,2.86

row,Variant,protein stability index
1,LTKLREMGQEKCHQYWPAERSARY,3.05
2,LTKLREMGHEKCHQYWPAERSARY,2.73
3,LTKLREMGSEKCHQYWPAERSARY,2.81
4,LTKLREMGVEKCHQYWPAERSARY,1.92
5,LTKLREMGLEKCHQYWPAERSARY,2.73
6,LTKLREMGREKEHQYWPAERSARY,3.11
7,LTKLREMGREKAHQYWPAERSARY,3.2
8,LTKLREMGREKDHQYWPAERSARY,3.48
9,LTKDREMGREKCHQYWPAERSARY,3.29
10,LTKVREMGREKCHQYWPAERSARY,2.48
11,LTKGREMGREKCHQYWPAERSARY,3.55
12,LTKEREMGREKCHQYWPAERSARY,3.55
13,LTKIREMGREKCHQYWPAERSARY,2.58
14,LTKRREMGREKCHQYWPAERSARY,2.92
15,LTKTREMGREKCHQYWPAERSARY,2.77
16,LTKPREMGREKCHQYWPAERSARY,2.88
17,LTKSREMGREKCHQYWPAERSARY,2.99
18,LTKKREMGREKCHQYWPAERSARY,2.8
19,LTKYREMGREKCHQYWPAERSARY,2.63
20,LTKFREMGREKCHQYWPAERSARY,2.63
21,LTKHREMGREKCHQYWPAERSARY,2.84
22,LTKNREMGREKCHQYWPAERSARY,3.04
23,LTKMREMGREKCHQYWPAERSARY,2.65
24,LTKAREMGREKCHQYWPAERSARY,2.72

row,Variant,protein stability index
1,LTKCREMGREKCHQYWPAERSARY,2.12
2,LTKWREMGREKCHQYWPAERSARY,2.12
3,LTKQREMGREKCHQYWPAERSARY,3.1
4,LTKLREMGRCKCHQYWPAERSARY,2.65
5,LTKLREMGRPKCHQYWPAERSARY,2.71
6,LTKLREMGRGKCHQYWPAERSARY,2.25
7,LTKLREMGRTKCHQYWPAERSARY,1.87
8,LTKLREMGRVKCHQYWPAERSARY,2.28
9,LTKLREMGRDKCHQYWPAERSARY,2.3
10,LTKLREMGRQKCHQYWPAERSARY,1.97
11,LTKLREMGRLKCHQYWPAERSARY,1.99
12,LTKLREMGRWKCHQYWPAERSARY,2.15
13,LTKLREMGRRKCHQYWPAERSARY,2.42
14,LTKLREMGRMKCHQYWPAERSARY,1.83
15,LTKLREMGRNKCHQYWPAERSARY,2.46
16,LTKLREMGRIKCHQYWPAERSARY,1.91
17,LTKLREMGRKKCHQYWPAERSARY,2.03
18,LTKLREMGRYKCHQYWPAERSARY,2.48
19,LTKLREMGRSKCHQYWPAERSARY,2.3
20,LTKLREMGRFKCHQYWPAERSARY,2.13
21,LTKLREMGRAKCHQYWPAERSARY,2.08
22,LTKLREMGRHKCHQYWPAERSARY,2.05
